Experimental data taken from the supplement of paper PMC7125110.
± gives the standard error. For part of these data: Fewer inactive variants are shown than the library holds.

B1: glmS ribozyme (parent)
chain: AUAAAAGCGCCAGAACUACAGAAAUGUAGUUGACGAGGAGGAGGUUUAUCGAAUUUUCGGCGGAUGCCUCCAAA

How the values were obtained:
Conditions in all cases: with glucosamine-6-phosphate
glucosamine-6-phosphate [1] = variants of: B1; experiment: kcat; higher = faster cleavage; RNA array
Procedure, shortened: (§1)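 Tracking of barcoded ribozyme variants used a hybridised Cy3 probe at 37 °C, after in situ transcription by E. coli RNA polymerase on sequenced MiSeq chips. The flowed solution held 40 μM to 10 mM glucosamine-6-phosphate in HEPES/KCl/Mg(OAc)2 buffer, and imaging ran over ~14 h. kobs was taken from exponential decay fits of normalised per-tile medians, and kcat and KM from weighted Michaelis–Menten fits.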

glucosamine-6-phosphate [2] = variants of: B1; experiment: KM; higher = weaker cofactor use; RNA array
Procedure, shortened: as §1

glucosamine-6-phosphate [3] = variants of: B1; experiment: self-cleavage kobs at 40 uM GlcN6P; higher = faster cleavage; RNA array
Procedure, shortened: as §1

glucosamine-6-phosphate [4] = variants of: B1; experiment: self-cleavage kobs at 160 uM GlcN6P; higher = faster cleavage; RNA array
Procedure, shortened: as §1

glucosamine-6-phosphate [5] = variants of: B1; experiment: self-cleavage kobs at 640 uM GlcN6P; higher = faster cleavage; RNA array
Procedure, shortened: as §1

glucosamine-6-phosphate [6] = variants of: B1; experiment: self-cleavage kobs at 10000 uM GlcN6P; higher = faster cleavage; RNA array
Procedure, shortened: as §1

glucosamine-6-phosphate [7] = variants of: B1; experiment: self-cleavage kobs at 2500 uM GlcN6P; higher = faster cleavage; RNA array
Procedure, shortened: as §1

Row | Variant | kcat (glucosamine-6-phosphate [1]) [s⁻¹] | KM (glucosamine-6-phosphate [2]) [µM] | self-cleavage kobs at 40 uM GlcN6P (glucosamine-6-phosphate [3]) [s⁻¹] | self-cleavage kobs at 160 uM GlcN6P (glucosamine-6-phosphate [4]) [s⁻¹] | self-cleavage kobs at 640 uM GlcN6P (glucosamine-6-phosphate [5]) [s⁻¹] | self-cleavage kobs at 10000 uM GlcN6P (glucosamine-6-phosphate [6]) [s⁻¹] | self-cleavage kobs at 2500 uM GlcN6P (glucosamine-6-phosphate [7]) [s⁻¹]
1 | AUAAAAGCGCCAGAACUACAGAAAUGUAGUUGACGAGGAGGAGGUUUAUCAAAUUUUCGGCGGAUGCCUCAAAA [G51A C71A] | 1.9e-05 ± 9e-07 | 105 ± 32 |  |  |  |  | 
2 | AUAAAAGCGCCAGAACUACAGAAAUGUAGUUGACGAGGAAGAGGUUUAUCGAAUGUUCGGCGGAUGCCUCCAAA [G40A U55G] | 0.00116 ± 0.00032 | 369 ± 170 | 0.000131 ± 1.8e-05 | 0.000246 ± 5.5e-05 | 0.000944 ± 0.00014 | 0.00106 ± 0.00018 | 
3 | AUAAAAGCGCCAGAACUACAGAAAUGUAGUUGACGAGGAAGAGGUUUAUCGAAUUUUCGGCGGAUGCCUCUAAA [G40A C71U] | 0.0789 ± 0.028 | 3660 ± 1500 | 0.000981 ± 7.3e-05 | 0.00194 ± 0.00048 | 0.0113 ± 0.0013 | 0.0591 ± 0.0079 | 0.0322 ± 0.009
4 | AUAAAAGCGCCGGAACUACAGAAAUGUAGUUGACGAGGGGGAGGUUUAUCGAAUUUUCGGCGGAUGCCUCCAAA [A12G A39G] | 0.0017 ± 0.00036 | 4960 ± 1500 |  | 3.92e-05 ± 9.9e-06 | 0.00022 ± 2.9e-05 | 0.00109 ± 0.00014 | 0.000622 ± 9e-05
5 | AUAAAAGCGCCAGUACUACAGAAAUGUAGAUGACGAGGAGGAGGUUUAUCGAAUUUUCGGCGGAUGCCUCCAAA [A14U U30A] | 0.00136 ± 0.00037 | 2250 ± 960 | 3.62e-05 ± 1e-05 | 8.35e-05 ± 1.7e-05 | 0.000337 ± 5.2e-05 | 0.00134 ± 0.00021 | 0.000564 ± 9.8e-05
6 | AUAAAAGCGUCAGAACUACAGAAAUGUAGUUGACGAGGAGGAGGUUCAUCGAAUUUUCGGCGGAUGCCUCCAAA [C10U U47C] | < 1e-05 |  | < 1e-05 |  | < 1e-05 |  | 
7 | AUAAAAGCGCCAGUACUACAGAAAUGUAGUUGUCGAGGAGGAGGUUUAUCGAAUUUUCGGCGGAUGCCUCCAAA [A14U A33U] | 0.000182 ± 2.6e-05 |  |  |  |  | 7.63e-05 ± 9.8e-06 | 2.81e-05 ± 1e-05
8 | AUAAAAGCGCGAGAACUACAGAAAUGUAGUUGACGAGGAGGAGGUUUAUCGAAUUUUCUGCGGAUGCCUCCAAA [C11G G59U] | 0.000116 ± 2.9e-05 |  |  |  |  | 9.62e-05 ± 1.5e-05 | 0.000106 ± 2.1e-05
9 | AUAAAAGCGCAAGGACUACAGAAAUGUAGUUGACGAGGAGGAGGUUUAUCGAAUUUUCGGCGGAGGCCUCCAAA [C11A A14G U65G] | 0.000152 ± 6.2e-06 | 1370 ± 200 |  |  | 5.21e-05 ± 1.7e-05 | 0.000135 ± 1.7e-05 | 9.32e-05 ± 2e-05
10 | AUAAAAGCGCCAGAACUACAGAAAUGUAGUUGACGAGGAGGAGGUGUAUCGAAUUUUGGGCGGAUGCCUCCAAA [U46G C58G] | 2.68e-05 ± 1.4e-06 | 892 ± 260 |  | < 1e-05 |  | 2.44e-05 ± 1.2e-05 | 
11 | AUAAAAGCGCCAGAAGUACAGAAAUGUAGUUGACGAGGAGGAGGUCUAUCGAAUUUUCGGCGGAUGCCUCCAAA [C16G U46C] | 0.000353 ± 5e-05 | 2310 ± 630 |  |  | 8.24e-05 ± 2.7e-05 | 0.00032 ± 9e-05 | 0.000169 ± 3.5e-05
12 | AUAAAAGCGCCAGAACUACAGAAAUGUAGUUGACGAGGCUGAGGUUUAUCGAAUUUUCGGCGGAUGCCUCCAAA [A39C G40U] | 0.000135 ± 1.1e-05 | 1690 ± 480 |  |  | 5.01e-05 ± 1.7e-05 | 0.000118 ± 1e-05 | 7.56e-05 ± 9.8e-06
13 | AUAAAAGCGCCAGAACUACAGAAAUGUAGUUGACGAGGAGGAGGCUUAUCGAAUUUUCGGCGGAAGGCUCCAAA [U45C U65A C67G] | 0.00116 ± 0.00022 | 1660 ± 630 | 3.4e-05 ± 1.6e-05 |  | 0.000279 ± 0.0001 | 0.000996 ± 0.00022 | 
14 | AUAAAAGCGCCAGAACUACAGAAAUGUAGUUGACGGGGAGGAGGUUUAUCGAAUUUUCGGCGGAUGCCGCCAAA [A36G U69G] | 2.8e-05 ± 8.7e-06 |  |  | 3.18e-05 ± 1.6e-05 | 4.85e-05 ± 1.9e-05 |  | 
15 | AUAAAAGCGCCAGAACUACAGAAAUGUAGUUGACGAGGAGGAGUUUUAUCGAAUUUUCGGCGGAUGACUCCAAA [G44U C67A] | 0.0253 ± 0.0035 | 1130 ± 210 | 0.000868 ± 0.0001 | 0.00267 ± 0.00064 | 0.00977 ± 0.0013 | 0.0209 ± 0.0036 | 0.0244 ± 0.0065
16 | AUAAAUGCGCCAGAACUACAGAAAUGUAGUUGACGAGGAGGAGGUUUAUCGAAUUCUCGGCGGAUGCCUCCAAA [A6U U56C] | 3.09e-05 ± 1.4e-06 | 4670 ± 590 |  | < 1e-05 |  | 2.11e-05 ± 7.5e-06 | 
